# Where a chain is given by its changes, count along the chain named. Numbers in names are those of the source.
# B1: CD80 E35D/M47V/N48K/V68M/K89N IgV-Fc, (EAAAK)3 linker (Fc fusion, not shown: a dimerising Fc or GST)
# chain: VIHVTKEVKEVATLSCGHNVSVEELAQTRIYWQKDKKMVLTMMSGDVKIWPEYKNRTIFDITNNLSIMILALRPSDEGTYECVVLKYENDAFKREHLAEVTLSVKADEAAAKEAAAKEAAAK
# B2: variant CD80 IgV-Fc E35D/M47V/N48K/V68M/L85M (Fc fusion, not shown: small tags and cut ends; a dimerising Fc or GST)
# chain: VIHVTKEVKEVATLSCGHNVSVEELAQTRIYWQKDKKMVLTMMSGDVKIWPEYKNRTIFDITNNLSIMILALRPSDEGTYECVVMKYEKDAFKREHLAEVTLSVKAD
# B3: variant CD80 IgV-Fc E35D/M47L/Y53F/V68M/A71G/K93R/E95V (Fc fusion, not shown: small tags and cut ends; a dimerising Fc or GST)
# chain: B2 chain with V47L, K48N, Y53F, A71G, M85L, K93R, E95V
# B4: variant CD80 IgV-Fc E35D/T41S/D46E/M47I/V68M/K93R/E95V (Fc fusion, not shown: small tags and cut ends; a dimerising Fc or GST)
# chain: B2 chain with T41S, D46E, V47I, K48N, M85L, K93R, E95V
# B5: variant CD80 IgV-Fc E35D/M43I/M47L/V68M (Fc fusion, not shown: small tags and cut ends; a dimerising Fc or GST)
# chain: B2 chain with M43I, V47L, K48N, M85L
# B6: variant CD80 IgV-Fc H18Y/V22D/E35D/M47V/N48K/V68M (Fc fusion, not shown: small tags and cut ends; a dimerising Fc or GST)
# chain: B2 chain with H18Y, V22D, M85L
# B7: variant CD80 IgV-Fc E35D/M47V/N48K/V68M/A71G/L85M (Fc fusion, not shown: small tags and cut ends; a dimerising Fc or GST)
# chain: B2 chain with A71G
# B8: variant CD80 IgV-Fc H18Y/E35D/V68M/T79M/L85M (Fc fusion, not shown: small tags and cut ends; a dimerising Fc or GST)
# chain: B2 chain with H18Y, V47M, K48N, T79M
# B9: CD155 S42N variant IgV-Fc fusion (Fc fusion, not shown: a dimerising Fc or GST)
# chain: WPPPGTGDVVVQAPTQVPGFLGDSVTLPCYLQVPNMEVTHVNQLTWARHGESGSMAVFHQTQGPSYSESKRLEFVAARLGAELRNASLRMFGLRVEDEGNYTCLFVTFPQGSRSVDIWLRVL
# B10: CD155 S42N/S52E/V57L/L104E variant IgV-Fc fusion (Fc fusion, not shown: a dimerising Fc or GST)
# chain: B9 chain with S52E, V57L, L104E
# B11: CD155 S42V/S52E variant IgV-Fc fusion (Fc fusion, not shown: a dimerising Fc or GST)
# chain: B9 chain with N42V, S52E
# B12: variant CD80 IgV-Fc E35D/M43I/M47V/K89N (Fc fusion, not shown: small tags and cut ends; a dimerising Fc or GST)
# chain: B2 chain with M43I, K48N, M68V, M85L, K89N
# notes: Fc fusion of the variant IgV
# B13: variant CD80 IgV-Fc E35D/M38T/M43V/M47V/N48R/L85Q (Fc fusion, not shown: small tags and cut ends; a dimerising Fc or GST)
# chain: B2 chain with M38T, M43V, K48R, M68V, M85Q
# notes: Fc fusion of the variant IgV
# B14: variant CD80 IgV-Fc E35D/M47V/T62A/A71D/K93E (Fc fusion, not shown: small tags and cut ends; a dimerising Fc or GST)
# chain: B2 chain with K48N, T62A, M68V, A71D, M85L, K93E
# notes: Fc fusion of the variant IgV
# B15: variant CD80 IgV-Fc Q33R/E35D/M47V/N48K/L85M/F92L (Fc fusion, not shown: small tags and cut ends; a dimerising Fc or GST)
# chain: B2 chain with Q33R, M68V, F92L
# notes: Fc fusion of the variant IgV
# B16: variant CD80 IgV-Fc Q33L/E35D/M43I/Y53F/T62S/L85Q (Fc fusion, not shown: small tags and cut ends; a dimerising Fc or GST)
# chain: B2 chain with Q33L, M43I, V47M, K48N, Y53F, T62S, M68V, M85Q
# notes: Fc fusion of the variant IgV
# Target: T1, human CD28 (human, UniProt P10747 19-220)
# T1 construct: Endogenous CD28 on Jurkat/IL2 reporter cells
# Assay: flow cytometry on Jurkat cells (CD28)
row,Binder,MFI at 33.3 nM [MFI]
1,B1,1280

# Target: T2, human PD-L1 (huPD-L1), full-length, stably expressed on CHO cells (human, UniProt Q9NZQ7 19-290)
# T2 construct: whole, on cells
# Assay: flow cytometry, CHO cells expressing huPD-L1; MFI against WT CD80 of the table
# T2 sequence (Q9NZQ7 19-290): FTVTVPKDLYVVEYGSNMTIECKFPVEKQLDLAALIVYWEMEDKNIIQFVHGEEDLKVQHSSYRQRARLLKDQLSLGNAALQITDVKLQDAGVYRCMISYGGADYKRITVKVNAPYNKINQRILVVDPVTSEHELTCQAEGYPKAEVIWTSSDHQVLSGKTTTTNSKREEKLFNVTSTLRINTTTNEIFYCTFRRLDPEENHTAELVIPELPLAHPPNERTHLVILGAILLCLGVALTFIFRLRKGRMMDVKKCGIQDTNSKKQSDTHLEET
row,Binder,Fold change to WT CD80 [fold]
1,B2,148
2,B3,486
3,B4,287
4,B5,328
5,B6,250
6,B7,442
7,B8,290

# Target: T3, human PD-L1 (human, UniProt Q9NZQ7 19-290)
# T3 construct: also called huPD-L1; CD274
# Assay: flow cytometry on CHO cells stably expressing PD-L1
# T3 sequence (Q9NZQ7 19-290): as above
row,Binder,MFI at 33.3 nM [MFI]
1,B1,24500

# Target: T4, CD28, endogenously expressed on Jurkat/IL2 reporter cells (human, UniProt P10747 19-220)
# T4 construct: whole, on cells
# Assay: flow cytometry, Jurkat/IL2 reporter cells (endogenous CD28)
row,Binder,MFI at 33.3 nM [MFI]
1,B2,245
2,B3,383
3,B4,476
4,B5,1520
5,B6,257
6,B7,302
7,B8,1040

# Target: T5, CD96 (UniProt P40200 22-585, limits assumed)
# T5 construct: whole, on cells
# T5 sequence (looked up): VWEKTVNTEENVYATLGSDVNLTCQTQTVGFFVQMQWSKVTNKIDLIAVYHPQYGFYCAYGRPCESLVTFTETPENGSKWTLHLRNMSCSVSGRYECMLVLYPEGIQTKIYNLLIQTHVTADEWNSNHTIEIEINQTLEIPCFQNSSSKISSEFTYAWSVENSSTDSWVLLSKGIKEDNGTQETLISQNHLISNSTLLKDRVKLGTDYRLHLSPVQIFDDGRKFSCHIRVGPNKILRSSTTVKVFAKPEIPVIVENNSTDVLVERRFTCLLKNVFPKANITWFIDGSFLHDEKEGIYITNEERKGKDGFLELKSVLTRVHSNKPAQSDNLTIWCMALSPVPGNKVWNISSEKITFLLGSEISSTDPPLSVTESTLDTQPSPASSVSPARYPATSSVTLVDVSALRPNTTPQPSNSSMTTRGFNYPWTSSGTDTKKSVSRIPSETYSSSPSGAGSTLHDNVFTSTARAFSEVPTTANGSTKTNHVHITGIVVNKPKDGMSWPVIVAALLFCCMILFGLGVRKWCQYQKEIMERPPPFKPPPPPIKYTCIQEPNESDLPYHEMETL
# Assay: flow cytometry on cells expressing CD96, Fc fusion at 100 nM
row,Binder,MFI at 100 nM [MFI]
1,B9,1690
2,B10,1540
3,B11,2530

# Target: T4, CD28, endogenously expressed on …
# Assay: flow cytometry, Jurkat/IL2 reporter cells (endogenous CD28); MFI against WT CD80 of the table
row,Binder,Fold change to WT CD80 [fold]
1,B2,7.8
2,B3,12.2
3,B4,15.2
4,B5,48.3
5,B6,8.2
6,B7,9.6
7,B8,33.2

# Target: T6, human CTLA-4 (CTLA4), expressed on CHO cells (human, UniProt P16410 36-223)
# T6 construct: Full-length surface expression construct transduced by lentivirus into CHO cells; also called huCTLA4
# Assay: flow cytometry on CHO cells stably expressing human CTLA-4; PE anti-human Fc
# T6 sequence (P16410 36-223): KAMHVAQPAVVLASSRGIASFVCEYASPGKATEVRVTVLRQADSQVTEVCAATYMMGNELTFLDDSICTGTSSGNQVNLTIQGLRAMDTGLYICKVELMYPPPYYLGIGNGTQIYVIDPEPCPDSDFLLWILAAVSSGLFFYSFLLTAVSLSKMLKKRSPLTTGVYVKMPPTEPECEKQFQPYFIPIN
row,Binder,MFI at 33.3 nM [MFI]
1,B12,278000
2,B13,204000
3,B14,226000
4,B15,2680
5,B16,3980

# Target: T2, human PD-L1 (huPD-L1), full-length, …
# Assay: flow cytometry; MFI on PD-L1 CHO cells over MFI on Jurkat cells (CD28)
row,Binder,Ratio of PDL1:CD28 [ratio]
1,B2,31.1
2,B3,65.3
3,B4,31.1
4,B5,11.1
5,B6,50.1
6,B7,75.4
7,B8,14.3

# Target: T7, human PD-L1, expressed on CHO cells (human, UniProt Q9NZQ7 19-290)
# T7 construct: Full-length surface expression construct transduced by lentivirus into CHO cells; also called huPD-L1; CD274
# Assay: flow cytometry on CHO cells stably expressing human PD-L1; PE anti-human Fc
# T7 sequence (Q9NZQ7 19-290): as the sequence (Q9NZQ7 19-290) above
row,Binder,MFI at 33.3 nM [MFI]
1,B12,19200
2,B13,21800
3,B14,693
4,B15,21400
5,B16,72100

# Target: T8, human CTLA4 (huCTLA4), full-length, stably expressed on CHO cells (human, UniProt P16410 36-223)
# T8 construct: whole, on cells
# Assay: flow cytometry, CHO cells expressing huCTLA4
# T8 sequence (P16410 36-223): as the sequence (P16410 36-223) above
row,Binder,MFI at 33.3 nM [MFI]
1,B2,15600
2,B3,16000
3,B4,18400
4,B5,16200
5,B6,15800
6,B7,16600
7,B8,16300

# Target: T9, TIGIT (UniProt Q495A1 22-244)
# T9 construct: whole, on cells
# T9 sequence (looked up): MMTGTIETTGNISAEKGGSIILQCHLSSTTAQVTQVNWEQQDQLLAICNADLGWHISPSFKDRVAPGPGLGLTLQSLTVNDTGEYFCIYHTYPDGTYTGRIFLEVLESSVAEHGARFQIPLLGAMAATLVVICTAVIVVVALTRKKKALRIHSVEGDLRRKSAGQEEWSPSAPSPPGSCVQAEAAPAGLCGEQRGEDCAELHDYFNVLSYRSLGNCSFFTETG
# Assay: flow cytometry on cells expressing TIGIT, Fc fusion at 100 nM
row,Binder,MFI at 100 nM [MFI]
1,B9,1820
2,B10,1780
3,B11,2060

# Target: T8, human CTLA4 (huCTLA4), full-length, …
# Assay: flow cytometry, CHO cells expressing huCTLA4; MFI against WT CD80 of the table
row,Binder,Fold change to WT CD80 [fold]
1,B2,8.9
2,B3,9.1
3,B4,10.5
4,B5,9.3
5,B6,9
6,B7,9.5
7,B8,9.3

# Target: T10, human CTLA-4 (human, UniProt P16410 36-223)
# T10 construct: also called huCTLA4
# Assay: flow cytometry on CHO cells stably expressing CTLA4
# T10 sequence (P16410 36-223): as the sequence (P16410 36-223) above
row,Binder,MFI at 33.3 nM [MFI]
1,B1,27100

# Target: T2, human PD-L1 (huPD-L1), full-length, …
# Assay: flow cytometry, CHO cells expressing huPD-L1
row,Binder,MFI at 33.3 nM [MFI]
1,B2,7620
2,B3,25000
3,B4,14800
4,B5,16900
5,B6,12900
6,B7,22800
7,B8,14900

# Target: T11, CD226 (UniProt Q15762 19-336)
# T11 construct: whole, on cells
# T11 sequence (looked up): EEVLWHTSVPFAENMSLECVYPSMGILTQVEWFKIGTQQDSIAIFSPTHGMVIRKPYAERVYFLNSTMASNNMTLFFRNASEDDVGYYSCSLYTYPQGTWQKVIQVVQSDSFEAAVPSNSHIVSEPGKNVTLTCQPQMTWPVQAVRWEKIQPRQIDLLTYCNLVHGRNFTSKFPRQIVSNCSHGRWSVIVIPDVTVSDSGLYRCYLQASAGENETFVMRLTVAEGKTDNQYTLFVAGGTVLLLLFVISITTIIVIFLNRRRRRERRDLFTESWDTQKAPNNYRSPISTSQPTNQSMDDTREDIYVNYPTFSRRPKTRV
# Assay: flow cytometry on cells expressing CD226, Fc fusion at 100 nM
row,Binder,MFI at 100 nM [MFI]
1,B9,1910
2,B10,1740
3,B11,2270

# — US20210130436A1 (published 2021)
